Experiments:
[1] = target: CD19/NKG2DL tandem CAR with a short hinge (12 amino acids) derived from CD8α (UniProt P26718); assay: flow cytometry on cells; CAR-transduced primary T-cells incubated with rhMICA-Avi (detected with Alexa Fluor 647 streptavidin) and/or rhCD19-Fc (detected with anti-human IgG-Fc antibody); MFI read in a subpopulation expressing the CD34 marker at similar level; one ligand alone or both together
[2] = target: CD19/NKG2DL tandem CAR with a short hinge (12 amino acids) derived from IgG4 (UniProt P26718); assay: as above

B1: recombinant human Biotinylated Human MICA Protein, His,Avitag (ligand)
chain: EPHSLRYNLTVLSWDGSVQSGFLTEVHLDGQPFLRCDRQKCRAKPQGQWAEDVLGNKTWDRETRDLTGNGKDLRMTLAHIKDQKEGLHSLQEIRVCEIHEDNSTRSSQHFYYDGELFLSQNLETKEWTMPQSSRAQTLAMNVRNFLKEDAMKTKTHYHAMHADCLQELRRYLKSGVVLRRTVPPMVNVTRSEASEGNITVTCRASGFYPWNITLSWRQDGVSLSHDTQQWGDVLPDGNGTYQTWVATRICQGEEQRFTCYMEHSGNHSTHPVPSGKVLVLQSHW
modifications: biotin (biotinylated protein)
decrease of MICA binding against the NKG2DL single-targeting CAR [1]: 30%
decrease of MICA binding against the NKG2DL single-targeting CAR [2]: 30%

From article PMC12098294
